In the FLAb antibody collection (doi:10.7554/elife.23156) one finds Kd and yeast surface expression data, which are given here for 58 variants.

Broadly, the Kd is the concentration at which binding is half-saturated.

B1: scFv; the commonest letter at each place (parent)
chain 1: EVKLDETGGGLVQPGRPMKLSCVASGFTFSDYWMNWVRQSPEKGLEWVAQIRNKPYNYETYYSDSVKGRFTISRDDSKSSVYLQMNNLRVEDMGIYYCTGSYYGMDYWGQGTSVTVS
chain 2: DVVMTQTPLSLPVSLGDQASISCRSSQSLVHSNGNTYLRWYLQKPGQSPKVLIYKVSNRFSGVPDRFSGSGSGTDFTLKISRVEAEDLGVYFCSQSTHVPWTFGGGTKLEIK

Variants of B1 are the subject of data set [1]. Description: Kd (Tite-Seq). To be noted: with fluorescein; format: scFv 4-4-20, heavy + light.
The variants in data set [2] derive from B1. Put plainly: yeast surface expression (ratio to wild type); higher = more expressed. To be noted: format: scFv 4-4-20, heavy + light.

In the case of chain 1 G100N Y107V, in data set [1], the equilibrium dissociation constant (Kd) is no less than 10 µM. Moreover, the yeast surface expression in data set [2] was 0.691.

For chain 1 G100F S101I, the dissociation constant Kd in data set [1] is no less than 10 µM. Moreover, the yeast surface expression in data set [2] came out at 0.501.

For chain 1 G100F S101M, the Kd in data set [1] is no less than 10 µM. Further, in data set [2], the yeast surface expression is 0.704.

With chain 1 G100K W108H, the Kd in data set [1] is no less than 10 µM. In addition, the yeast surface expression in data set [2] was determined as 0.249.

With chain 1 G100C W108T, the dissociation constant Kd in data set [1] is 0.000846 µM. In data set [2], the yeast surface expression turned out to be 0.565.

chain 1 G100C W108G: the dissociation constant Kd in data set [1] was no less than 10 µM. The yeast surface expression in data set [2] was 0.401.

Regarding chain 1 G100C W108L, in data set [1], the dissociation constant (Kd) was found to be 0.000389 µM. Further, the yeast surface expression in data set [2] is 0.653.

As for chain 1 G100D D106G G109S, the Kd in data set [1] was no less than 10 µM. Further, the yeast surface expression in data set [2] stood at 0.224.

On to chain 1 F29Y D31P, for which, in data set [1], the Kd is no less than 10 µM. The yeast surface expression in data set [2] came to 0.888.

For chain 1 G100E Y102S W108I, in data set [1], the equilibrium dissociation constant (Kd) is 0.0302 µM. Also, the yeast surface expression in data set [2] was 0.245.

Regarding chain 1 G100H S101E, in data set [1], the dissociation constant (Kd) is no less than 10 µM. Further, the yeast surface expression in data set [2] turned out to be 0.4.

chain 1 G100H S101H: the Kd in data set [1] is no less than 10 µM. The yeast surface expression in data set [2] worked out at 0.273.

chain 1 G100H S101G: the equilibrium dissociation constant (Kd) in data set [1] is no less than 10 µM. For the same variant, the yeast surface expression in data set [2] came to 0.649.

With chain 1 G100N M105Y, the Kd in data set [1] was no less than 10 µM. Besides, the yeast surface expression in data set [2] is 0.462.

In the case of chain 1 G100N M105T, the Kd in data set [1] was no less than 10 µM. Besides, in data set [2], the yeast surface expression was 0.413.

For the variant chain 1 G100H W108F, the Kd in data set [1] stood at 0.00746 µM. Also, in data set [2], the yeast surface expression was 0.392.

As to chain 1 G100H W108D, the dissociation constant Kd in data set [1] was no less than 10 µM. In addition, the yeast surface expression in data set [2] amounted to 0.321.

chain 1 G100E D106M: in data set [1], the equilibrium dissociation constant (Kd) is no less than 10 µM. Besides, the yeast surface expression in data set [2] came out at 0.17.

Regarding chain 1 G100E D106Q, the equilibrium dissociation constant (Kd) in data set [1] is no less than 10 µM. Also, in data set [2], the yeast surface expression is 0.172.

Take chain 1 G100E D106H: in data set [1], the dissociation constant Kd is no less than 10 µM. For the same variant, the yeast surface expression in data set [2] was 0.289.

Take chain 1 F29Y M34Q V37M: the dissociation constant (Kd) in data set [1] was 4.37 µM. The yeast surface expression in data set [2] amounted to 0.485.

On to chain 1 G100D S101W, for which the dissociation constant (Kd) in data set [1] is no less than 10 µM. For the same variant, in data set [2], the yeast surface expression was 0.171.

With chain 1 G100D S101I, the Kd in data set [1] is no less than 10 µM. Also, the yeast surface expression in data set [2] was 0.0999.

For chain 1 F29Y M34K, the Kd in data set [1] was no less than 10 µM. The yeast surface expression in data set [2] worked out at 0.646.

Regarding chain 1 F29Y M34E, in data set [1], the Kd was no less than 10 µM. In addition, the yeast surface expression in data set [2] was 0.542.

For chain 1 G100Q M105S, the equilibrium dissociation constant (Kd) in data set [1] is no less than 10 µM. The yeast surface expression in data set [2] is 0.521.

With chain 1 G100M G104C, in data set [1], the Kd was no less than 10 µM. In data set [2], the yeast surface expression was 0.544.

Consider chain 1 G100H D106C, for which, in data set [1], the Kd was no less than 10 µM. Further, the yeast surface expression in data set [2] was determined as 0.222.

Turning to chain 1 G100H D106F, in data set [1], the Kd turned out to be 9.5 µM. The yeast surface expression in data set [2] turned out to be 0.752.

For chain 1 G100H Y107H, the dissociation constant (Kd) in data set [1] was no less than 10 µM. Further, the yeast surface expression in data set [2] is 0.348.

In the case of chain 1 G100I Y102M, the equilibrium dissociation constant (Kd) in data set [1] is no less than 10 µM. Moreover, the yeast surface expression in data set [2] was found to be 1.08.

Take chain 1 G100R M105Y W108P: the equilibrium dissociation constant (Kd) in data set [1] was no less than 10 µM. Further, the yeast surface expression in data set [2] came out at 0.298.

Consider chain 1 G100R D106V, for which the dissociation constant (Kd) in data set [1] is no less than 10 µM. In data set [2], the yeast surface expression stood at 0.108.

Take chain 1 G100E Y107H: the dissociation constant Kd in data set [1] is no less than 10 µM. The yeast surface expression in data set [2] stood at 0.501.

With chain 1 G100K D106S, the Kd in data set [1] was no less than 10 µM. Besides, the yeast surface expression in data set [2] turned out to be 0.303.

For the variant chain 1 G100K D106C, the dissociation constant (Kd) in data set [1] is no less than 10 µM. Moreover, in data set [2], the yeast surface expression was determined as 0.0988.

With chain 1 G100K D106V, the Kd in data set [1] is no less than 10 µM. For the same variant, the yeast surface expression in data set [2] worked out at 0.171.

With chain 1 G100C Y107S, the Kd in data set [1] worked out at 2.88 µM. Further, the yeast surface expression in data set [2] amounted to 0.64.

Turning to chain 1 G100C Y107E, the dissociation constant Kd in data set [1] is no less than 10 µM. Besides, the yeast surface expression in data set [2] stood at 0.6.

Take chain 1 G100N G109R: the dissociation constant (Kd) in data set [1] was no less than 10 µM. The yeast surface expression in data set [2] stood at 0.283.

Turning to chain 1 G100N G109H, in data set [1], the equilibrium dissociation constant (Kd) was no less than 10 µM. The yeast surface expression in data set [2] stood at 0.236.

Turning to chain 1 G100R Y103D W108G, the Kd in data set [1] is no less than 10 µM. In addition, the yeast surface expression in data set [2] is 0.483.

With chain 1 G100A Y103K G109T, the equilibrium dissociation constant (Kd) in data set [1] amounted to 3.2 µM. Besides, the yeast surface expression in data set [2] was 0.753.

For chain 1 G100M Y102V, in data set [1], the Kd was no less than 10 µM. Besides, in data set [2], the yeast surface expression came out at 0.856.

With chain 1 F29Y Y32A, the Kd in data set [1] was found to be 0.00708 µM. Besides, the yeast surface expression in data set [2] is 1.02.

On to chain 1 F29Y Y32H, for which the Kd in data set [1] came out at 0.205 µM. In addition, the yeast surface expression in data set [2] turned out to be 0.756.

As for chain 1 F29Y Y32R, the dissociation constant Kd in data set [1] was no less than 10 µM. For the same variant, in data set [2], the yeast surface expression is 0.761.

Regarding chain 1 F29Y Y32S, the Kd in data set [1] is no less than 10 µM. Moreover, the yeast surface expression in data set [2] was determined as 0.95.

Consider chain 1 G100D Y103C, for which the dissociation constant (Kd) in data set [1] was no less than 10 µM. Besides, the yeast surface expression in data set [2] was 0.414.

chain 1 G100I S101E: in data set [1], the Kd is no less than 10 µM. The yeast surface expression in data set [2] was 0.652.

Turning to chain 1 G100P S101T, the Kd in data set [1] was no less than 10 µM. Moreover, the yeast surface expression in data set [2] came to 0.486.

As for chain 1 G100D Y107V, the dissociation constant (Kd) in data set [1] was no less than 10 µM. Further, the yeast surface expression in data set [2] was 0.406.

Consider chain 1 G100L G104Q W108M, for which the equilibrium dissociation constant (Kd) in data set [1] was no less than 10 µM. For the same variant, in data set [2], the yeast surface expression came out at 0.343.

As to chain 1 G100I Y103C M105Y, the equilibrium dissociation constant (Kd) in data set [1] was no less than 10 µM. Further, in data set [2], the yeast surface expression worked out at 0.694.

Consider chain 1 G100K M105D, for which the dissociation constant (Kd) in data set [1] is no less than 10 µM. The yeast surface expression in data set [2] came to 0.375.

In the case of chain 1 F29W M34W, the dissociation constant (Kd) in data set [1] was no less than 10 µM. For the same variant, the yeast surface expression in data set [2] worked out at 0.913.

As for chain 1 G100I G104W, the equilibrium dissociation constant (Kd) in data set [1] is no less than 10 µM. Moreover, in data set [2], the yeast surface expression is 0.449.

Regarding chain 1 F29W W36Y, in data set [1], the dissociation constant (Kd) was no less than 10 µM. For the same variant, in data set [2], the yeast surface expression came out at 0.591.
